Columns and labels:
[1] = target: T1, APP-TAP-AICD (human, UniProt P05067 18-695); experiment: streptavidin purification of APP-TAP-AICD from brain homogenate; iTRAQ 116/114, transgenic mouse 75 vs control mouse 72; MALDI-TOF/TOF;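 also: relative protein abundance in the transgenic versus control pull-down, limited to proteins with high quality scores and above-average enrichment, without full normalization across the whole measurement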
Description: (§1) Shown are all proteins that have high quality scores and are enriched above average in the m75 sample. Purified bait protein is given underlined. Other already known interaction partners of AICD or putatively biologically relevant proteins are given in bold. As full normalization over the entire measurement was not possible through the GPS explorer software suite, this conservative estimate had to be taken for determining the enriched vs. the non-enriched proteins. […] Ranking is in order of abundance ratio.

[2] = target: T1, APP-TAP-AICD; experiment: streptavidin purification of APP-TAP-AICD from brain homogenate; LTQ-FT semiquantitative method, transgenic mouse 75 vs control mouse 72
[3] = target: T2, APP-TAP-AICD (human, UniProt P05067-4 18-695); experiment: streptavidin purification of APP-TAP-AICD from brain homogenate; iTRAQ 116/114, transgenic mouse 75 vs control mouse 72; MALDI-TOF/TOF;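 also: relative protein abundance in the transgenic versus control pull-down, limited to proteins with high quality scores and above-average enrichment, without full normalization across the whole measurement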
T2 construct: Bait purified from brain homogenate of hemizygous transgenic mice via streptavidin; full-length APP and cleaved C-terminal stubs are isolated; also called TAP-tagged full-length human APP
Description: as §1

Binder	iTRAQ ratio [1]	probability that this protein is enriched [2]	iTRAQ ratio [3]
Gamma enolase (2-phospho-D-glycerate hydrolyase) (Neural enolase) (enzyme, mouse, UniProt P17183 2-434, looked up, also called neuron-specific enolase) SIEKIWAREILDSRGNPTVEVDLYTAKGLFRAAVPSGASTGIYEALELRDGDKQRYLGKGVLKAVDHINSRIAPALISSGISVVEQEKLDNLMLELDGTENKSKFGANAILGVSLAVCKAGAAERDLPLYRHIAQLAGNSDLILPVPAFNVINGGSHAGNKLAMQEFMILPVGAESFRDAMRLGAEVYHTLKGVIKDKYGKDATNVGDEGGFAPNILENSEALELVKEAIDKAGYTEKMVIGMDVAASEFYRDGKYDLDFKSPADPSRYITGDQLGALYQDFVRNYPVVSIEDPFDQDDWAAWSKFTANVGIQIVGDDLTVTNPKRIERAVEEKACNCLLLKVNQIGSVTEAIQACKLAQENGWGVMVSHRSGETEDTFIADLVVGLCTGQIKTGAPCRSERLAKYNQLMRIEEELGDEARFAGHNFRNPSVL	4.08	1	
SH3-containing GRB2-like protein 1 (SH3 domain protein 2B) (SH3p8) (other, mouse, UniProt Q62419 1-368, looked up, also called SH3G1_MOUSE) MSVAGLKKQFYKASQLVSEKVGGAEGTKLDDDFKDMEKKVDVTSKAVAEVLVRTIEYLQPNPASRAKLTMLNTVSKIRGQVKNPGYPQSEGLLGECMVRHGKELGGESNFGDALLDAGESMKRLAEVKDSLDIEVKQNFIDPLQNLCDKDLKEIQHHLKKLEGRRLDFDYKKKRQGKIPDEELRQALEKFEESKEVAETSMHNLLETDIEQVSQLSALVDAQLDYHRQAVQILEELADKLKRRVREASSRPKREFKPRPREPFELGELEQPNGGFPCAPAPKITASSSFRSSDKPIRMPSKSMPPLDQPSCKALYDFEPENDGELGFREGDLITLTNQIDENWYEGMLHGQSGFFPLSYVQVLVPLPQ	3.64	1	
Guanine nucleotide-binding protein G(o); alpha subunit 1 (other, mouse, UniProt P18872 2-354, looked up, also called GNAO1_MOUSE) GCTLSAEERAALERSKAIEKNLKEDGISAAKDVKLLLLGAGESGKSTIVKQMKIIHEDGFSGEDVKQYKPVVYSNTIQSLAAIVRAMDTLGVEYGDKERKTDSKMVCDVVSRMEDTEPFSAELLSAMMRLWGDSGIQECFNRSREYQLNDSAKYYLDSLDRIGAGDYQPTEQDILRTRVKTTGIVETHFTFKNLHFRLFDVGGQRSERKKWIHCFEDVTAIIFCVALSGYDQVLHEDETTNRMHESLMLFDSICNNKFFIDTSIILFLNKKDLFGEKIKKSPLTICFPEYPGSNTYEDAAAYIQTQFESKNRSPNKEIYCHMTCATDTNNIQVVFDAVTDIIIANNLRGCGLY			3.38

Further lines, results first:

iTRAQ ratio [1]	probability that this protein is enriched [2]	iTRAQ ratio [3]	Binder
3.94	1		14-3-3 protein epsilon (14-3-3E) (other, mouse, UniProt P62259 1-255, looked up) MDDREDLVYQAKLAEQAERYDEMVESMKKVAGMDVELTVEERNLLSVAYKNVIGARRASWRIISSIEQKEENKGGEDKLKMIREYRQMVETELKLICCDILDVLDKHLIPAANTGESKVFYYKMKGDYHRYLAEFATGNDRKEAAENSLVAYKAASDIAMTELPPTHPIRLGLALNFSVFYYEILNSPDRACRLAKAAFDDAIAELDTLSEESYKDSTLIMQLLRDNLTLWTSDMQGDGEEQNKEALQDVEDENQ
4	0.86		Vesicle-fusing ATPase (EC 3.6.4.6) (Vesicular-fusion protein NSF) (N-ethylmaleimide sensitive fusion protein) (enzyme, mouse, UniProt P46460 1-744, looked up) MAGRTMQAARCPTDELSLSNCAVVNEKDFQSGQHVMVRTSPNHKYIFTLRTHPSVVPGCIAFSLPQRKWAGLSIGQDIEVALYSFDKAKQCIGTMTIEIDFLQKKNIDSNPYDTDKMAAEFIQQFNNQAFSVGQQLVFSFNDKLFGLLVKDIEAMDPSILKGEPASGKRQKIEVGLVVGNSQVAFEKAENSSLNLIGKAKTKENRQSIINPDWNFEKMGIGGLDKEFSDIFRRAFASRVFPPEIVEQMGCKHVKGILLYGPPGCGKTLLARQIGKMLNAREPKVVNGPEILNKYVGESEANIRKLFADAEEEQRRLGANSGLHIIIFDEIDAICKQRGSMAGSTGVHDTVVNQLLSKIDGVEQLNNILVIGMTNRPDLIDEALLRPGRLEVKMEIGLPDEKGRLQILHIHTARMRGHQLLSADVDIKELAVETKNFSGAELEGLVRAAQSTAMNRHIKASTKVEVDMEKAESLQVTRGDFLASLENDIKPAFGTNQEDYASYIMNGIIKWGDPVTRVLDDGELLVQQTKNSDRTPLVSVLLEGPPHSGKTALAAKIAEESNFPFIKICSPDKMIGFSETAKCQAMKKIFDDAYKSQLSCVVVDDIERLLDYVPIGPRFSNLVLQALLVLLKKAPPQGRKLLIIGTTSRKDVLQEMEMLNAFSTTIHVPNIATGEQLLEALELLGNFKDKERTTIAQQVKGKKVWIGIKKLLMLIEMSLQMDPEYRVRKFLALMREEGASPLDFD
